Numbered stars: 1 amine (or outer) side, 2 acyl side, 3 side chain; on linkers, the order of the positions; unused ones are H or OH. Square brackets hold non-standard residues; d marks the D form. Ends that are not written are not given here. * marks the point of attachment. Tap(2Me) = (2S,4R)-4-(dimethylamino)pyrrolidine-2-carboxylic acid, CN(C)[C@@H]1C[C@@H](C(=O)[*:2])N([*:1])C1; Ebe = (R)-2-amino-3-(methylsulfanyl)propanoic acid, CSC[C@H](N[*:1])C(=O)[*:2]; 6059 = 3-(Octane-1-sulfinyl)-propionic acid, CCCCCCCCS(=O)CCC(=O)*; 6072‑OH = rac-7-hydroxy-dodecanoic acid, CCCCCC(O)CCCCCC(=O)*; Pro(trans-4-NH2) = O=C([C@@H]1C[C@@H](N[*:3])CN1[*:1])[*:2]; 6071‑OH = rac-6-hydroxy-decanoic acid, CCCCC(O)CCCCC(=O)*; 6057 = 3-Octylsulfanyl-propionic acid, CCCCCCCCSCCC(=O)*; 6058 = 7-Butylsulfanyl-heptanoic acid, CCCCSCCCCCCC(=O)*; Sni = (S)-nipecotic acid, O=C([C@H]1CCCN([*:1])C1)[*:2]; 6056 = (2S)-2-octylcyclopropanecarboxylic acid; Hyp = O=C(O)[C@@H]1C[C@@H](O)CN1; NMeF = CN[C@@H](Cc1ccccc1)C(=O)O; 2Pal = N[C@@H](Cc1ccccn1)C(=O)O; 4Pal = N[C@@H](Cc1ccncc1)C(=O)O; NMeL = CN[C@@H](CC(C)C)C(=O)O; Lauroyl = CCCCCCCCCCCC(=O)*; Decanoyl = CCCCCCCCCC(=O)*; 3Amb = NCc1cccc(C(=O)O)c1; Octanoyl = CCCCCCCC(=O)*; FrL = not defined here; Hexanoyl = CCCCCC(=O)*; Oct = not defined here
T1: natriuretic peptide receptor-B (human)
T1 chain: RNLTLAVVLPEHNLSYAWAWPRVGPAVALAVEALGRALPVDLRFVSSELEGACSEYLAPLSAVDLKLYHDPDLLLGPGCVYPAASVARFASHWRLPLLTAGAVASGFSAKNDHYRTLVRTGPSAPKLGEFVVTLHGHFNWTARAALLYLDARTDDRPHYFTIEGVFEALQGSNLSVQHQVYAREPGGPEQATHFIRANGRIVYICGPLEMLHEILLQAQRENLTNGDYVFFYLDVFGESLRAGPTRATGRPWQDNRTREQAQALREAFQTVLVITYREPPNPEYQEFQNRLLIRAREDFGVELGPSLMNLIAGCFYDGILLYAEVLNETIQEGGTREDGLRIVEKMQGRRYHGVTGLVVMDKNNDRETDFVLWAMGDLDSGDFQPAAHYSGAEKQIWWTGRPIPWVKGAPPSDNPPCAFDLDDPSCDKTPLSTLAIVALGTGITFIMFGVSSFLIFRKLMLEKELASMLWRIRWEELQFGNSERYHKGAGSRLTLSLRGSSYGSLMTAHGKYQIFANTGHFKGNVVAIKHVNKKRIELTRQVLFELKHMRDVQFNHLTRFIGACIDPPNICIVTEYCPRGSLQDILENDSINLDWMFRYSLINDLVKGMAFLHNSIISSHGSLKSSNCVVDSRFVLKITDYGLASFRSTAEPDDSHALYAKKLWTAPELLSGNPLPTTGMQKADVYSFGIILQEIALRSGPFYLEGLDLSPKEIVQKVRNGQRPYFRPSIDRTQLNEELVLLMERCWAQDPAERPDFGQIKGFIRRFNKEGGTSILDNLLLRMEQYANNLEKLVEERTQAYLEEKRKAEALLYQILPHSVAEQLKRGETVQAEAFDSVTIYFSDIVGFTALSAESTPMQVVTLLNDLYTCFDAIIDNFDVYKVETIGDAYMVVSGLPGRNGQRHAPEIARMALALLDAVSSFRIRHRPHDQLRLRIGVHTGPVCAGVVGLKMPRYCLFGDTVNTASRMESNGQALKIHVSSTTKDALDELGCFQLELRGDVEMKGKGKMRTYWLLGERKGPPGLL

B1: JAL-1254 (peptide)
peptide: Octanoyl-[Sni]FKL[Hyp][NMeL]DRI-NH2
modifications: not fully specified (some residues); printed as Occ-Sni-Phe-lys-Leu-Hyp-Nml-Asp-Arg-Ile-NH2
B2: JAL-1256 (peptide)
peptide: Octanoyl-[Sni]XLL[Hyp][NMeL]DRI-NH2
modifications: not fully specified (some residues); printed as Occ-Sni-Mpa-leu-Leu-Hyp-Nml-Asp-Arg-Ile-
B3: JAL-1266 (peptide)
peptide: Octanoyl-[Sni][2Pal]LL[Hyp][NMeL]DRI-NH2
modifications: not fully specified (some residues); printed as Occ-Sni-Opa-leu-Leu-Hyp-Nml-Asp-Arg-Ile-
B4: JAL-1262 (peptide)
peptide: Octanoyl-AFGL[Tap(2Me)]LDRI-NH2
modifications: not fully specified (some residues); printed as Occ-ala-Phe-Gly-Leu-Tap(2Me)-Leu-Asp-Arg-Ile-
B5: JAL-1248 (peptide)
peptide: [Oct][Sni][FrL][Hyp]LDRI-NH2
modifications: reading uncertain; also: printed as Oct-Sni-FrL-Hyp-Leu-Asp-Arg-Ile-NH2
B6: JAL-1240 (peptide)
peptide: 6056-FRL[Hyp][NMeL]DRI-NH2
modifications: not fully specified (some residues); printed as 6056-Phe-arg-Leu-Hyp-Nml-Asp-Arg-Ile-NH2
B7: JAL-1261 (peptide)
peptide: Decanoyl-FRL[Hyp][NMeL]DRI-NH2
modifications: not fully specified (some residues); printed as 5587-Phe-arg-Leu-Hyp-Nml-Asp-Arg-Ile-NH2
B8: JAL-1265 (peptide)
peptide: Octanoyl-[Sni]FXL[Hyp][NMeL]DRI-NH2
modifications: not fully specified (some residues); printed as Occ-Sni-Phe-orn-Leu-Hyp-Nml-Asp-Arg-Ile-NH2
B9: JAL-0631 (peptide)
peptide: Hexanoyl-G[dA]FGLKLDRI-NH2
B10: JAL-0543 (peptide)
peptide: Hexanoyl-[3Amb]FGLKLDRIS[Ebe]-NH2
SMILES: CCCCCC(=O)NCc1cccc(C(=O)N[C@@H](Cc2ccccc2)C(=O)NCC(=O)N[C@@H](CC(C)C)C(=O)N[C@@H](CCCCN)C(=O)N[C@@H](CC(C)C)C(=O)N[C@@H](CC(=O)O)C(=O)N[C@@H](CCCNC(=N)N)C(=O)N[C@H](C(=O)N[C@@H](CO)C(=O)N[C@@H](CSC)C(N)=O)[C@@H](C)CC)c1
B11: JAL-1253 (peptide)
peptide: Octanoyl-[Sni]FSL[Hyp][NMeL]DRI-NH2
modifications: not fully specified (some residues); printed as Occ-Sni-Phe-ser-Leu-Hyp-Nml-Asp-Arg-Ile-NH2
B12: JAL-1242 (peptide)
peptide: 6058-FRL[Hyp][NMeL]DRI-NH2
modifications: not fully specified (some residues); printed as 6058-Phe-arg-Leu-Hyp-Nml-Asp-Arg-Ile-NH2
B13: JAL-1263 (peptide)
peptide: Octanoyl-AFRL[Tap(2Me)]LDRI-NH2
modifications: not fully specified (some residues); printed as Occ-ala-Phe-arg-Leu-Tap(2Me)-Leu-Asp-Arg-Ile-NH2
B14: JAL-1268 (peptide)
peptide: Octanoyl-A[NMeF]KL[Hyp][NMeL]DRI-NH2
modifications: not fully specified (some residues); printed as Occ-ala-Nmf-lys-Leu-Hyp-Nml-Asp-Arg-Ile-
B15: JAL-1257 (peptide)
peptide: Octanoyl-[Sni][4Pal]LL[Hyp][NMeL]DRI-NH2
modifications: not fully specified (some residues); printed as Occ-Sni-Ppa-leu-Leu-Hyp-Nml-Asp-Arg-Ile-NH2
B16: JAL-1241 (peptide)
peptide: 6057-FRL[Hyp][NMeL]DRI-NH2
modifications: not fully specified (some residues); printed as 6057-Phe-arg-Leu-Hyp-Nml-Asp-Arg-Ile-NH2
B17: JAL-1255 (peptide)
peptide: Octanoyl-[Sni]FRL[Hyp][NMeL]DRI-NH2
modifications: not fully specified (some residues); printed as Occ-Sni-Phe-arg-Leu-Hyp-Nml-Asp-Arg-Ile-NH2
B18: JAL-1264 (peptide)
peptide: Octanoyl-AFLL[Tap(2Me)]LDRI-NH2
modifications: not fully specified (some residues); printed as Occ-ala-Phe-leu-Leu-Tap(2Me)-Leu-Asp-Arg-Ile-NH2
B19: JAL-1246 (peptide)
peptide: Lauroyl-FRL[Hyp]LDRI-NH2
modifications: not fully specified (some residues); printed as 832-Phe-arg-Leu-Hyp-Leu-Asp-Arg-Ile-NH2
B20: JAL-1245 (peptide)
peptide: Lauroyl-FLL[Hyp][NMeL]DRI-NH2
modifications: not fully specified (some residues); printed as 832-Phe-leu-Leu-Hyp-Nml-Asp-Arg-Ile-NH2
B21: JAL-1249 (peptide)
peptide: Octanoyl-AFGL[Pro(trans-4-NH2)]LDRI-NH2
modifications: not fully specified (some residues); printed as Occ-ala-Phe-Gly-Leu-Tap-Leu-Asp-Arg-Ile-NH2
B22: JAL-1252 (peptide)
peptide: Octanoyl-AFSL[Hyp][NMeL]DRI-NH2
modifications: not fully specified (some residues); printed as Occ-ala-Phe-ser-Leu-Hyp-Nml-Asp-Arg-Ile-NH2
B23: JAL-1244 (peptide)
peptide: Lauroyl-[NMeF]RL[Hyp][NMeL]DRI-NH2
modifications: not fully specified (some residues); printed as 832-Nmf-arg-Leu-Hyp-Nml-Asp-Arg-Ile-NH2
B24: JAL-1251 (peptide)
peptide: Octanoyl-AFLL[Pro(trans-4-NH2)]DRI-NH2
modifications: not fully specified (some residues); printed as Occ-ala-Phe-leu-Leu-Tap-Asp-Arg-Ile-NH2
B25: JAL-1243 (peptide)
peptide: 6059-FRL[Hyp][NMeL]DRI-NH2
modifications: not fully specified (some residues); printed as 6059-Phe-arg-Leu-Hyp-Nml-Asp-Arg-Ile-NH2
B26: JAL-1250 (peptide)
peptide: Octanoyl-AFRL[Pro(trans-4-NH2)]LDRI-NH2
modifications: not fully specified (some residues); printed as Occ-ala-Phe-arg-Leu-Tap-Leu-Asp-Arg-Ile-NH2
B27: JAL-1259 (peptide)
peptide: {6071‑OH}-FRL[Hyp][NMeL]DRI-NH2
modifications: not fully specified (some residues); printed as (6071-OH)-Phe-arg-Leu-Hyp-Nml-Asp-Arg-Ile-NH2
B28: JAL-1260 (peptide)
peptide: {6072‑OH}-FRL[Hyp][NMeL]DRI-NH2
modifications: not fully specified (some residues); printed as (6072-OH)-Phe-arg-Leu-Hyp-Nml-Asp-Arg-Ile-NH2

Molecular target: T1, natriuretic peptide receptor-B
Assay: cell-based or functional assay

EC50 group, cGMP in GTM-3 cells, ≤ 1 µM:
B1
B8
B17
B21
B22
B24
B26

EC50 group, cGMP in GTM-3 cells, ≤ 5 µM:
B3
B4
B5
B6
B11
B12
B13
B14
B16
B18
B20
B25
B28

EC50 group, cGMP in GTM-3 cells, ≤ 15 µM:
B2
B7
B9
B10
B15
B19
B23
B27
